What was measured:
Assay in all cases: IP/MS, LZTR1 R810W-FLAG, U87
PEAK1 = PEAK1 (human, UniProt Q9H792 1-1746)
Method in brief: (§1)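 Extracted peptides in 3% acetonitrile/0.1% formic acid ran on a 50 cm C18 column into an Orbitrap Fusion, with MaxQuant identification and spectral counting.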

RAPH1 = molecular target: T1, RAPH1 (human, UniProt Q70E73 1-1250, limits assumed)
T1 sequence (looked up): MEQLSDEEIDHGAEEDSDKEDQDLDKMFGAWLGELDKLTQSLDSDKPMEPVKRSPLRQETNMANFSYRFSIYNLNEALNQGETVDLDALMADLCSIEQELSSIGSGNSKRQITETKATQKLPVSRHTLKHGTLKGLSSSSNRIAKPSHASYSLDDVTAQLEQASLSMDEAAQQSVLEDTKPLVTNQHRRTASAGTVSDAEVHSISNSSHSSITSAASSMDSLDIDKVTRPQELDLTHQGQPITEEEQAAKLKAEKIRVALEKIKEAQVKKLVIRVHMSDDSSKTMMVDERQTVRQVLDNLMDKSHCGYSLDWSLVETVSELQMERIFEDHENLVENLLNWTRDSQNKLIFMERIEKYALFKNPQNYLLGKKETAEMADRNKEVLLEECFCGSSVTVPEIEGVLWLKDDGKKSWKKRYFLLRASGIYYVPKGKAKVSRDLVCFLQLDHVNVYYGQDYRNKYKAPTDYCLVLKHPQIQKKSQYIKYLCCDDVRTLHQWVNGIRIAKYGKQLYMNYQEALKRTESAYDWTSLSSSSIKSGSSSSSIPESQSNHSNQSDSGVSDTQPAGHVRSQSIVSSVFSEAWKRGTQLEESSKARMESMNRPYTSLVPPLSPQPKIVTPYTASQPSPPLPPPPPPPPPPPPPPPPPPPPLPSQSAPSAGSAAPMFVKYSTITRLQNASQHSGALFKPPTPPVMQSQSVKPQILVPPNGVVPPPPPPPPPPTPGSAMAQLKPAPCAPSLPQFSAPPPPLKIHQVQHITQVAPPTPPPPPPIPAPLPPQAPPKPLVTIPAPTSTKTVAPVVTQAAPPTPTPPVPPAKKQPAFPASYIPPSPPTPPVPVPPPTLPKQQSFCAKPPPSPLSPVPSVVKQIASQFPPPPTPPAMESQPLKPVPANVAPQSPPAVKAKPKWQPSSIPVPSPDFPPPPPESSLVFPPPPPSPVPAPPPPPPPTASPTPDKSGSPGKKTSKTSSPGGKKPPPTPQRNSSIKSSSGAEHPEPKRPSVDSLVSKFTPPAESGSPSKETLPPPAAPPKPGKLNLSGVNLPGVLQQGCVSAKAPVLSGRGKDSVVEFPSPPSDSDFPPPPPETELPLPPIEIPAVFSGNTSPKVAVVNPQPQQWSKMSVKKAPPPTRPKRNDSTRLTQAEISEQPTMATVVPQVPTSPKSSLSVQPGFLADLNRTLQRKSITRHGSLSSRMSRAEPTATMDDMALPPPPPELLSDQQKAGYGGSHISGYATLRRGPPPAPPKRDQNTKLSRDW
Method in brief: as §1

TTC27 = TTC27 (human, UniProt Q6P3X3 1-843)
Method in brief: as §1

TRIO = TRIO (human, UniProt O75962 1-3097, limits assumed)
Method in brief: as §1

URB1 = URB1 (human, UniProt O60287 1-2271)
Method in brief: as §1

MYO10 = MYO10 (human, UniProt Q9HD67 1-2058, limits assumed)
Method in brief: as §1

Measured: binding result

Sequence of PEAK1 (Q9H792 whole entry, the tested form may be a part): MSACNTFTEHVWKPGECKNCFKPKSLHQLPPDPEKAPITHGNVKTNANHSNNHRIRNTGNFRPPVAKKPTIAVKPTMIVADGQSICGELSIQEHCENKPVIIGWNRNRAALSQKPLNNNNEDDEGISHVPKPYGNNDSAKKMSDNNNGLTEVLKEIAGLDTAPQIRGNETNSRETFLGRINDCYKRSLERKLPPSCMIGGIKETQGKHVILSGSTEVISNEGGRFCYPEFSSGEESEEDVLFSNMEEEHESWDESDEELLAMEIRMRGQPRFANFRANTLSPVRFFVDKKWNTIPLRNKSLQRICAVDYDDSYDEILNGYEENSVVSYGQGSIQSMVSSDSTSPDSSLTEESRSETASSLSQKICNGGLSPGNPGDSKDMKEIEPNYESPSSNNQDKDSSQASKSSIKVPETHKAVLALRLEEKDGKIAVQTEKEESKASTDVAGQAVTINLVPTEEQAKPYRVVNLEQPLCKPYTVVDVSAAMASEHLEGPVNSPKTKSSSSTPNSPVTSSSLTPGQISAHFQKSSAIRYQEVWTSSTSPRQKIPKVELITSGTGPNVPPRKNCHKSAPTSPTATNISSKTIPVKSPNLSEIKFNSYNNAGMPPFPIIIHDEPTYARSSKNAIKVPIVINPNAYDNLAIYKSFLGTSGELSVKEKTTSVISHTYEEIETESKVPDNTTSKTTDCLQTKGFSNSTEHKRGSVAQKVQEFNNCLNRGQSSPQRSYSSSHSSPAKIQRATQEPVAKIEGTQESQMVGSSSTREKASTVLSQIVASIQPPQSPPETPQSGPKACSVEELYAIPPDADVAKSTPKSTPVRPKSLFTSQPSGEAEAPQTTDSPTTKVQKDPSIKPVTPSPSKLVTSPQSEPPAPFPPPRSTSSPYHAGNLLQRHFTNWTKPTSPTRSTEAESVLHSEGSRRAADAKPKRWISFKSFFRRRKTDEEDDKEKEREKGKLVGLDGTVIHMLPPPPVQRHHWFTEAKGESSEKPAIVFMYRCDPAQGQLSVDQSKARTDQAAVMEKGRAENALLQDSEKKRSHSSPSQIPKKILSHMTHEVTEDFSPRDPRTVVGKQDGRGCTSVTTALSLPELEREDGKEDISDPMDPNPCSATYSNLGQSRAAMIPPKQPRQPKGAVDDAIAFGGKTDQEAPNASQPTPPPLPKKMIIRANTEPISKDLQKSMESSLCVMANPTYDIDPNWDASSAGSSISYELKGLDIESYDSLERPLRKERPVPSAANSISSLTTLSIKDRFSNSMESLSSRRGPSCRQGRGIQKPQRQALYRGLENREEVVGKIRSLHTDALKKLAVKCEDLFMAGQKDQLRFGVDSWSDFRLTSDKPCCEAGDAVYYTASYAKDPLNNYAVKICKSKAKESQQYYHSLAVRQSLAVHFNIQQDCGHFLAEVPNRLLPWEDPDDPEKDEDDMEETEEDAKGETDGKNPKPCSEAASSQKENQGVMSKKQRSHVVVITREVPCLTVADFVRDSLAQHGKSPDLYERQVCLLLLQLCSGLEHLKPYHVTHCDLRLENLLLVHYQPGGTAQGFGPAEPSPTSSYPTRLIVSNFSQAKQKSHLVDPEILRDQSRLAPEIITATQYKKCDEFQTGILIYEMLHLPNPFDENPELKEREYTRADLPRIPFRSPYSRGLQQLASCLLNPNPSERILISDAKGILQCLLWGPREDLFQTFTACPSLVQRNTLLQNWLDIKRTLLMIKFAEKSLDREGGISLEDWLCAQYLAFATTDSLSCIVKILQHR
Sequence of URB1 (O60287 whole entry): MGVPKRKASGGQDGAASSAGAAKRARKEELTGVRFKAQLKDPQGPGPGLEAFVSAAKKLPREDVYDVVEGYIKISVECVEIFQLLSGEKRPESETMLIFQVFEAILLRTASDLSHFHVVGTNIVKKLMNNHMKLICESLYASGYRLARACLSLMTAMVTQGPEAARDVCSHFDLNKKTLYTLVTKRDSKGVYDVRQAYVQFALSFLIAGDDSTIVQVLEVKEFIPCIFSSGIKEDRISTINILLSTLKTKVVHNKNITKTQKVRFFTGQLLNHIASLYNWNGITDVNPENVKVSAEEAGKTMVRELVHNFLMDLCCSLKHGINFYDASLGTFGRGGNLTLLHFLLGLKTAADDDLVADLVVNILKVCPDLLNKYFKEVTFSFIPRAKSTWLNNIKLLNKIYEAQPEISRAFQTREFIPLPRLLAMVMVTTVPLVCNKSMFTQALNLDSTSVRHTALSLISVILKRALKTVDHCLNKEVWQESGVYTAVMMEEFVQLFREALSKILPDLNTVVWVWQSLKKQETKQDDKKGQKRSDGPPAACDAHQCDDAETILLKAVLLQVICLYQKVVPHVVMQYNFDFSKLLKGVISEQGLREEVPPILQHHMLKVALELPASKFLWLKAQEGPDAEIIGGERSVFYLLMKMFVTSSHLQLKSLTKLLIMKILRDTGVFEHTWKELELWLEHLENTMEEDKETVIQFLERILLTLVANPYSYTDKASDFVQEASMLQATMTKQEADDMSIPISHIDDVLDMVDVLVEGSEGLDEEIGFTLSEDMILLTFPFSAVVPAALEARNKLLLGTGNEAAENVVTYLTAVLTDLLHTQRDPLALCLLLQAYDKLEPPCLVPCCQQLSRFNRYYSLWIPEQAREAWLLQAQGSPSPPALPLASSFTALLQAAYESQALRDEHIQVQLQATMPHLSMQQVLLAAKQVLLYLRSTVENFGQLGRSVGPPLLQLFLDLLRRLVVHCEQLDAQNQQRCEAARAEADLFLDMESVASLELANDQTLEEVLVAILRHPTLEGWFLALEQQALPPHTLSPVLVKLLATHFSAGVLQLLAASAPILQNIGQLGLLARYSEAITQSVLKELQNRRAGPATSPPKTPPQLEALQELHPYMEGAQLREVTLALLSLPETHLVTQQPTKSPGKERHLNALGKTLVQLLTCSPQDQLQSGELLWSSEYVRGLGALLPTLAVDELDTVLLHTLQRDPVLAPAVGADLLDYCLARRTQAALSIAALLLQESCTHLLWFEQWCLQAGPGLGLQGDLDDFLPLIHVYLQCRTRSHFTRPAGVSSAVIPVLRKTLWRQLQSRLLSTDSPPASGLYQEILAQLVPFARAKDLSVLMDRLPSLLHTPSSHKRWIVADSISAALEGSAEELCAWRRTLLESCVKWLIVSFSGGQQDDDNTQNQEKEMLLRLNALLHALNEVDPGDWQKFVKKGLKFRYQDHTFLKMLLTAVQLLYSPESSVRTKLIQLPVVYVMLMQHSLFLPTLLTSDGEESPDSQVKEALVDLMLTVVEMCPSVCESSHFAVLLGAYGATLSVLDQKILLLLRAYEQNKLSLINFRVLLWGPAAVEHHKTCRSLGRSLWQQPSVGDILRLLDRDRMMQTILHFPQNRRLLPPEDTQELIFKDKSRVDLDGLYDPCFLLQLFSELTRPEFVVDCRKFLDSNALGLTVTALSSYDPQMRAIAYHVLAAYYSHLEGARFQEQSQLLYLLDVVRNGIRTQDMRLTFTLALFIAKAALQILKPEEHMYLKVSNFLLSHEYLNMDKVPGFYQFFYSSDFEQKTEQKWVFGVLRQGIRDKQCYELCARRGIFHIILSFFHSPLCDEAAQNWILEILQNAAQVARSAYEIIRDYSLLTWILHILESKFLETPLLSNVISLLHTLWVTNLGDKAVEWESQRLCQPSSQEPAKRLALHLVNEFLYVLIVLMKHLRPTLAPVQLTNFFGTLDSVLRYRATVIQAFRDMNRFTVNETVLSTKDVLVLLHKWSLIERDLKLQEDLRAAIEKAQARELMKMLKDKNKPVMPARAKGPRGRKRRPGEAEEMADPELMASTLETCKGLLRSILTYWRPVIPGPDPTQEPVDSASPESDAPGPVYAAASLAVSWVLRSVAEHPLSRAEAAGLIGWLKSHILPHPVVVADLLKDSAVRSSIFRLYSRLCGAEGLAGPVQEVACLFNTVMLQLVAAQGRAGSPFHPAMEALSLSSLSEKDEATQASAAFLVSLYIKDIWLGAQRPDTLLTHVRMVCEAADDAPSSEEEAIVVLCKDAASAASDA

B1: LZTR1 R810W-FLAG (other, human, UniProt Q8N653 1-840, looked up)
chain: MAGPGSTGGQIGAAALAGGARSKVAPSVDFDHSCSDSVEYLTLNFGPFETVHRWRRLPPCDEFVGARRSKHTVVAYKDAIYVFGGDNGKTMLNDLLRFDVKDCSWCRAFTTGTPPAPRYHHSAVVYGSSMFVFGGYTGDIYSNSNLKNKNDLFEYKFATGQWTEWKIEGRLPVARSAHGATVYSDKLWIFAGYDGNARLNDMWTIGLQDRELTCWEEVAQSGEIPPSCCNFPVAVCRDKMFVFSGQSGAKITNNLFQFEFKDKTWTRIPTEHLLRGSPPPPQRRYGHTMVAFDRHLYVFGGAADNTLPNELHCYDVDFQTWEVVQPSSDSEVGGAEVPERACASEEVPTLTYEERVGFKKSRDVFGLDFGTTSAKQPTQPASELPSGRLFHAAAVISDAMYIFGGTVDNNIRSGEMYRFQFSCYPKCTLHEDYGRLWESRQFCDVEFVLGEKEECVQGHVAIVTARSRWLRRKITQARERLAQKLEQEAAPVPREAPGVAAGGARPPLLHVAIREAEARPFEVLMQFLYTDKIKYPRKGHVEDVLLIMDVYKLALSFQLCRLEQLCRQYIEASVDLQNVLVVCESAARLQLSQLKEHCLNFVVKESHFNQVIMMKEFERLSSPLIVEIVRRKQQPPPRTPLDQPVDIGTSLIQDMKAYLEGAGAEFCDITLLLDGHPRPAHKAILAARSSYFEAMFRSFMPEDGQVNISIGEMVPSRQAFESMLRYIYYGEVNMPPEDSLYLFAAPYYYGFYNNRLQAYCKQNLEMNVTVQNVLQILEAADKTQALDMKRHCLHIIVHQFTKVSKLPTLWSLSQQLLLDIIDSLASHISDKQCAELGADI
notes: Stably expressed in U87 cells by lentivirus; also called LZTR1-FLAG-R810W; LZTR1 RW; not shown: FLAG tag
binds: all assays above

From patent US20250262210A1 (TRUSTEES OF COLUMBIA UNIVERSITY IN THE CITY OF NEW YORK, published 2025)
